According to US20230212260A1 (published 2023):

Key:
[1] = target: CD40 (UniProt P25942); test: cell-based or functional assay
[2] = target: T1, human CEA (human, UniProt P06731 35-685, limits assumed); test: ELISA
T1 sequence (looked up): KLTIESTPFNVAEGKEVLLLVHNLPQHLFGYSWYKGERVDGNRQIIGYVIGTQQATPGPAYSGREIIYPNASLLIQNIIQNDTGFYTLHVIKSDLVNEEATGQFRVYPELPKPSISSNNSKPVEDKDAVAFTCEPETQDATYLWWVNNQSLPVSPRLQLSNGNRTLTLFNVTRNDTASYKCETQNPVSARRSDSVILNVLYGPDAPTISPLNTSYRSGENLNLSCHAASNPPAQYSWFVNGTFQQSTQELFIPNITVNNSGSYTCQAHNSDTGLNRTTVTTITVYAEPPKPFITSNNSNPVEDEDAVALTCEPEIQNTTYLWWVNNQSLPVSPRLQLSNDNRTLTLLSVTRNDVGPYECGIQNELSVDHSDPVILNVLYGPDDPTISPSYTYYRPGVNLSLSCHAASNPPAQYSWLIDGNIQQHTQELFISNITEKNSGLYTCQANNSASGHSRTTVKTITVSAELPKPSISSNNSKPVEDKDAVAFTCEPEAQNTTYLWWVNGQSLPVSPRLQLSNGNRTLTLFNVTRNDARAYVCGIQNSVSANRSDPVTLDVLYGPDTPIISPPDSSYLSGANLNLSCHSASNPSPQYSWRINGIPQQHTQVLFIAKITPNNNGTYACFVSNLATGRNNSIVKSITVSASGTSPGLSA

[3] = target: T2, CD27 (UniProt P26842 20-260, limits assumed); test: cell-based or functional assay
T2 sequence (looked up): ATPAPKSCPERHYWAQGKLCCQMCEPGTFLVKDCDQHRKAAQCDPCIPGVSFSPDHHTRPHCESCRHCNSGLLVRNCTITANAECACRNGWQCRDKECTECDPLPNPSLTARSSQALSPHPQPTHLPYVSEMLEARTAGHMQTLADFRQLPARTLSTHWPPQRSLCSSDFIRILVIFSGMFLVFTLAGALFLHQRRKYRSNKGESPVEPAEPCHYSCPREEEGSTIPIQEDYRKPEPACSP

Chain of CD40 (P25942 21-277 limits assumed): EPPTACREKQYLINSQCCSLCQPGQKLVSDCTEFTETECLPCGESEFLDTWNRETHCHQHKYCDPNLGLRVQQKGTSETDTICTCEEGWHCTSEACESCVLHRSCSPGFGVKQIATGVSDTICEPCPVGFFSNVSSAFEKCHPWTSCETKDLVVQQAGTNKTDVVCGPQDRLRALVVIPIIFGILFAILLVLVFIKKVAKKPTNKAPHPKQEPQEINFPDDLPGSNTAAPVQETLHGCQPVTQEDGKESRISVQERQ

Trimeric CD40L (ligand) was tested, and the immature dendritic cell activation assay, activation level (CD86+ / CD83+), 100 ng/ml, 24 h [1] was 46.1%.

B1: aCEA-scCD40L (bispecific antibody)
heavy: EVQLLESGGGLVQPGGSLRLSCATSGFTFTDYYMNWVRQAPGKGLEWLGFIGNKANGYTTEYSASVKGRFTISRDKSKSTLYLQMNTLQAEDSAIYYCTRDRGLRFYFDYWGQGTLVTVSSASTKGPSVFPFAPSSKSTSGGTAALGCLVKDYFPEPVTVSWNSGALTSGVHTFPAVLQSSGLYSLSSVVTVPSSSLGTQTYICNVNHKPSNTKVDKKVEPKSCDKTHGSGSSSSSSQIAAHVISEASSKTTSVLQWAEKGYYTMSNNLVTLENGKQLTVKRQGLYYIYAQVTFCSNREASSQAPFIASLSLKSPGRFERILLRAANTHSSAKPCGQQSIHLGGVFELQPGASVFVNVTDPSQVSHGTGFTSFGLLKLGSGSGNGSQIAAHVISEASSKTTSVLQWAEKGYYTMSNNLVTLENGKQLTVKRQGLYYIYAQVTFCSNREASSQAPFIASLSLKSPGRFERILLRAANTHSSAKPCGQQSIHLGGVFELQPGASVFVNVTDPSQVSHGTGFTSFGLLKLGSGSGNGSQIAAHVISEASSKTTSVLQWAEKGYYTMSNNLVTLENGKQLTVKRQGLYYIYAQVTFCSNREASSQAPFIASLSLKSPGRFERILLRAANTHSSAKPCGQQSIHLGGVFELQPGASVFVNVTDPSQVSHGTGFTSFGLLKL
light: QTVLTQSPSSLSVSVGDRVTITCRASSSVTYIHWYQQKPGLAPKSLIYATSNLASGVPSRFSGSGSGTDYTFTISSLQPEDIATYYCQHWSSKPPTFGQGTKVEVKRTVAAPSVFIFPPSDEQLKSGTASVVCLLNNFYPREAKVQWKVDNALQSGNSQESVTEQDSKDSTYSLSSTLTLSKADYEKHKVYACEVTHQGLSSPVTKSFNRGEC
B1: binds [2].

B2: aPDL1-scCD27L-SAB (bispecific antibody, human IgG1, kappa)
chain: QSLGWDVAELQLNHTGPQQDPRLYWQGGPALGRSFLHGPELDKGQLRIHRDGIYMVHIQVTLAICSSTTASRHHPTTLAVGICSPASRSISLLRLSFHQGCTIASQRLTPLARGDTLCTNLTGTLLPSRNTDETFFGVQWVRPGSGSGNGSESLGWDVAELQLNHTGPQQDPRLYWQGGPALGRSFLHGPELDKGQLRIHRDGIYMVHIQVTLAICSSTTASRHHPTTLAVGICSPASRSISLLRLSFHQGCTIASQRLTPLARGDTLCTNLTGTLLPSRNTDETFFGVQWVRPGSGSGNGSESLGWDVAELQLNHTGPQQDPRLYWQGGPALGRSFLHGPELDKGQLRIHRDGIYMVHIQVTLAICSSTTASRHHPTTLAVGICSPASRSISLLRLSFHQGCTIASQRLTPLARGDTLCTNLTGTLLPSRNTDETFFGVQWVRPGSGSDKTHTCPPCPAPELLGGPSVFLFPPKPKDTLMISRTPEVTCVVVDVSHEDPEVKFNWYVDGVEVHNAKTKPREEQYSSTYRVVSVLTVLHQDWLNGKEYKCKVSNKALPAPIEKTISKAKGQPREPQVYTLPPCRDELTKNQVSLWCLVKGFYPSDIAVEWESNGQPENNYKTTPPVLDSDGSFFLYSKLTVDKSRWQQGNVFSCSVMHEALHNHYTQKSLSLSPGK
heavy: EVQLLESGGGLVQPGGSLRLSCAASGFTFSSYIMMWVRQAPGKGLEWVSSIYPSGGITFYADTVKGRFTISRDNSKNTLYLQMNSLRAEDTAVYYCARIKLGTVTTVDYWGQGTLVTVSSASTKGPSVFPLAPSSKSTSGGTAALGCLVKDYFPEPVTVSWNSGALTSGVHTFPAVLQSSGLYSLSSVVTVPSSSLGTQTYICNVNHKPSNTKVDKKVEPKSCDKTHTCPPCPAPELLGGPSVFLFPPKPKDTLMISRTPEVTCVVVDVSHEDPEVKFNWYVDGVEVHNAKTKPREEQYSSTYRVVSVLTVLHQDWLNGKEYKCKVSNKALPAPIEKTISKAKGQPREPQVCTLPPSRDELTKNQVSLSCAVKGFYPSDIAVEWESNGQPENNYKTTPPVLDSDGSFFLVSKLTVDKSRWQQGNVFSCSVMHEALHNRFTQKSLSLSPGK
light: QSALTQPASVSGSPGQSITISCTGTSSDVGGYNYVSWYQQHPGKAPKLMIYDVSNRPSGVSNRFSGSKSGNTASLTISGLQAEDEADYYCSSYTSSSTRVFGTGTKVEIKRTVAAPSVFIFPPSDEQLKSGTASVVCLLNNFYPREAKVQWKVDNALQSGNSQESVTEQDSKDSTYSLSSTLTLSKADYEKHKVYACEVTHQGLSSPVTKSFNRGEC
In the case of B2, the “CD27 Luciferase assay with MDA-MB231 cells, activity against that of scCD27L-Fc” value [3] is reported as ~3 fold.
